# Experimental data as given in US20120165265A1, “Calcium Signaling Modulators Involving STIM and ORAI Proteins” (priority 2009, published 2012).
# Tests used:
# CRAC channels = target: T1, CRAC channels (Homo sapiens, UniProt Q96D31); assay: [Ca2+]i imaging in HEK 293 cells expressing STIM1 fragment and Orai1; format: cell-based; conditions: HEK 293 cells coexpressing construct and Orai1, no store depletion
# T1 construct: expressed in transfected cells; host or cells: HEK 293
# Description: Ca^2+ Imaging. For FIG. 2, cells were loaded at 37° C. in DMEM with 1 μM fura-2/AM for 30 min. Ratiometric Ca2+ imaging was performed at 340 and 380 nm in 2 mM Ca2+ Ringer's solution with a Nikon Eclipse 2000-U inverted microscope equipped with a fluorescent arc lamp, excitation filter wheel, and a Hamamatsu Orca CCD camera. Images were collected using Openlab (Improvision) and analyzed using Igor Pro.
# To determine if CAD activates store operated Ca^2+ influx in cells, we measured [Ca^2+]i in HEK 293 cells expressing CAD and Orai1.
# Orai1 = Orai1 (Homo sapiens, UniProt Q96D31); assay: Yeast split ubiquitin interaction assay, CAD with Orai1; format: binding; conditions: NubG-Orai1 and CAD-Cub-LV in yeast
# Chain of Orai1 (Q96D31 whole entry): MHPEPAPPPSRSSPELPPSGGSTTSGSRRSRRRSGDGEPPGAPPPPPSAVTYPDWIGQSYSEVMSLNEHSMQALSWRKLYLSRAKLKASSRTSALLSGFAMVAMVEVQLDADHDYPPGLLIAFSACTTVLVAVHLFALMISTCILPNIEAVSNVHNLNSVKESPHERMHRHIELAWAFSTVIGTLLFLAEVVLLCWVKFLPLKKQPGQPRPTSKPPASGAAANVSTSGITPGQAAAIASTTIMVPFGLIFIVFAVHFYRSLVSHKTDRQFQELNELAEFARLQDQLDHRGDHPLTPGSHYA
# Description: Split-Ubiquitin Yeast Two Hybrid Assay. Screening was performed according to the manufacturer's instructions (Dualsystems Biotech). Transformed yeast were selected on media lacking Trp and Leu (-TL). Interaction was observed by cell growth on plates lacking Trp, Leu, and His (TLH) in the presence of 3-aminotriazole (3-AT). Protein interactions were also assessed by measuring lacZ activity using the chromogenic substrate X-gal (5-bromo-4-chloro-3-indolyl-β-galactopyranoside).
# Split-Ubiquitin Yeast Two Hybrid Assay. To generate fusion proteins with the N-terminal half of ubiquitin (Nub), full-length or fragments of Orai1 were amplified by PCR and cloned into the pDL2-Nubx vector (Dualsystems Biotech). The Nub sequence in the pDL2-Nubx plasmid contains a point mutation (NubG) that abolishes the spontaneous association of Nub to the C-terminal half of ubiquitin (Cub). The CAD was subcloned into the pAMBV4 vector, which contains Cub fused to a chimeric transcription factor consisting of the DNA binding domain from LexA and the VP16 transactivation domain.
# As a third test for association of CAD and Orai1 in vivo, and to map the interaction domains of Orai1 we introduced both proteins into a yeast split ubiquitin interaction system. […]
# GFP-Orai1 = target: T2, GFP-Orai1 (Homo sapiens, UniProt Q96D31); assay: Fluorescence recovery after photobleaching (FRAP) of GFP-Orai1; format: cell-based
# T2 construct: expressed in transfected cells
# T2 sequence (Q96D31 whole entry): as above
# Description: Fluorescence Recovery After Photobleaching (FRAP). Inducible HEK 293 cells were transiently transfected with mCh-CAD and maintained with 10 μM LaCl3 to suppress chronic Ca2+ entry. After 15-16 h, eGFP-myc-Orai1 expression was induced with 1 μg/ml tetracycline in medium containing LaCl3. Cells were rinsed with 2 mM Ca2+ Ringer's solution at 24 h post-transfection prior to imaging on the confocal system described above. Prebleach and recovery images were scanned at 488 nm at low power (20 mW Ar laser, 50% power, 6% transmission). A 3-μm strip was bleached at 50% laser power with full transmission for ˜2 s. Bleaching during the recovery period was negligible (<5%). FRAP recovery curves were analyzed with ImageJ (W. S. Rasband, NIH, Bethesda, Md., following a published method in which an empirical formula approximating the one-dimensional solution of the diffusion equation is fitted to the time course of fluorescence recovery within the bleached ROI. An offset was introduced to account for incomplete bleaching. The
# where I(t) is the mean intensity within the bleached region at time t, Ib is the intensity immediately after bleaching, If is the intensity after full recovery, w is the width of the bleached region, and D is the effective diffusion coefficient, was fit to the FRAP recovery curves with Igor Pro 5.0 (Wavemetrics) to determine D. Mobility was determined as (If−Ib)/(I0−Ib), where If and Ib are defined as above, and I0 is the initial intensity within the ROI after correction for the loss of whole-cell fluorescence by the bleaching pulse (˜10%).
# To test whether CAD also clusters CRAC channels in intact cells, we conducted fluorescence recovery after photobleaching (FRAP) experiments of GFP-Orai1 expressed alone or with CAD in HEK 293 cells. […] In cells co-expressing GFP-Orai1 and CAD, the mobile fraction was unchanged (87±4%) but Orai1 diffusion was slowed by a factor of two (D=0.036±0.006 μm^2/s, n=6).
# T1 sequence (Q96D31 whole entry, the tested form may be a part): as the sequence (Q96D31 whole entry) above
substance,measurement,setting,value
"CAD: 107-residue CRAC activation domain within the C-terminus of STIM1 (aa 342-448), SEQ ID NO:1",[Ca2+]i / CRAC channel activation,CRAC channels,sustained [Ca^2+]i elevation
same,"interaction with Orai1 (growth on His selection, b-gal)",Orai1,interact with each other
same,mobile fraction of GFP-Orai1,GFP-Orai1; HEK 293 cells co-expressing GFP-Orai1 and CAD,87±4%
same,"effective diffusion coefficient (D) of GFP-Orai1, mean","GFP-Orai1; HEK 293 cells co-expressing GFP-Orai1 and CAD, n=6",0.036±0.006 μm^2/s
same,"diffusion coefficient of eGFP-Orai1, single-cell fit",GFP-Orai1; single cell expressing eGFP-Orai1 with CAD (FIG. 6D),0.026 μm^2/s
